To fix the notation:
T1: human neuropeptide Y2 receptor (human, UniProt P49146 1-381)
T1 construct: whole, on cells; also called hNPY2 receptor; hNPY2-R
T1 sequence (looked up): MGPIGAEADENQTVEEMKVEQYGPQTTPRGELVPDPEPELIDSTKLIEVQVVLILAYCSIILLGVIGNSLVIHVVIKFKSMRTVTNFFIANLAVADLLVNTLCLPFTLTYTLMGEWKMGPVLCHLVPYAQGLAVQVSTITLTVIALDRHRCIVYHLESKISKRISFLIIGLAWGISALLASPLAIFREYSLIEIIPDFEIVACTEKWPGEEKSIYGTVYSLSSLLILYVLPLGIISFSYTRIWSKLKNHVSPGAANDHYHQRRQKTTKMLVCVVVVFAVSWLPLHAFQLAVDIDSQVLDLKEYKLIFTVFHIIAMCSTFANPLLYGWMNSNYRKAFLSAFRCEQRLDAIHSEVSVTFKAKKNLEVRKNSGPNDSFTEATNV

T2: human NPY5 receptor (human, UniProt Q15761 1-445)
T2 sequence (looked up): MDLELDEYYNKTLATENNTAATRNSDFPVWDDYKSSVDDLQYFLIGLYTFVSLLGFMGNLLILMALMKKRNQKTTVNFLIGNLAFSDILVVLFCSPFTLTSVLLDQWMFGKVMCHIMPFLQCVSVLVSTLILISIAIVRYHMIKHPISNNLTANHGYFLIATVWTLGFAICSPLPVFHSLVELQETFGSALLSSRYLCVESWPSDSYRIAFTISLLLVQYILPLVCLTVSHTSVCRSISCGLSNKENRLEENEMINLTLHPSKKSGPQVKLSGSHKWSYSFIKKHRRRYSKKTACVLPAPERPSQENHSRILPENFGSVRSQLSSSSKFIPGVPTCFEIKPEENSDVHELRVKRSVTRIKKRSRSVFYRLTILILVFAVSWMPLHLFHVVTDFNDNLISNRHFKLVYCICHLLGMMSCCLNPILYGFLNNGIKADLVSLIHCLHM

T3: human NPY1 receptor (human, UniProt P25929 1-384)
T3 sequence (looked up): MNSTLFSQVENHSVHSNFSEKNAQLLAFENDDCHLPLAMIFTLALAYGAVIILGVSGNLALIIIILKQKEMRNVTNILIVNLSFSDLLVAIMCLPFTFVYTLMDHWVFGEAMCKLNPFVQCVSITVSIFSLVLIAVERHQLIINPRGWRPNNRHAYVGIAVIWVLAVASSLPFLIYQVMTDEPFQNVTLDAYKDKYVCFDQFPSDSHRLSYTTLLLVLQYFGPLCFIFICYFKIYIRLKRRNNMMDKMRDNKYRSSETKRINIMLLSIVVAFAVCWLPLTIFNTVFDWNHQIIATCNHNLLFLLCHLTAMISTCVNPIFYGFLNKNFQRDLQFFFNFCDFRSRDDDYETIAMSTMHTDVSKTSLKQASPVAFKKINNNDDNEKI

B1: Compound 23 (peptide)
peptide: Isovaleryl-APAK([AEEA-AEEA-γGlu-C18 diacid])PEEDASPEEIQRYYVSLRHYYNWLTRQRY-NH2
B2: Compound 29 (peptide)
peptide: Isovaleryl-APEK([AEEA-AEEA-γGlu-C18 diacid])PEAPASPEELQRYYVELRHYYNWLTRQRY-NH2
SMILES: CC(C)CC(=O)N[C@@H](C)C(=O)N1CCC[C@H]1C(=O)N[C@@H](CCC(=O)O)C(=O)N[C@@H](CCCCNC(=O)COCCOCCNC(=O)COCCOCCNC(=O)CC[C@H](NC(=O)CCCCCCCCCCCCCCCCC(=O)O)C(=O)O)C(=O)N1CCC[C@H]1C(=O)N[C@@H](CCC(=O)O)C(=O)N[C@@H](C)C(=O)N1CCC[C@H]1C(=O)N[C@@H](C)C(=O)N[C@@H](CO)C(=O)N1CCC[C@H]1C(=O)N[C@@H](CCC(=O)O)C(=O)N[C@@H](CCC(=O)O)C(=O)N[C@@H](CC(C)C)C(=O)N[C@@H](CCC(N)=O)C(=O)N[C@@H](CCCNC(=N)N)C(=O)N[C@@H](Cc1ccc(O)cc1)C(=O)N[C@@H](Cc1ccc(O)cc1)C(=O)N[C@H](C(=O)N[C@@H](CCC(=O)O)C(=O)N[C@@H](CC(C)C)C(=O)N[C@@H](CCCNC(=N)N)C(=O)N[C@@H](Cc1c[nH]cn1)C(=O)N[C@@H](Cc1ccc(O)cc1)C(=O)N[C@@H](Cc1ccc(O)cc1)C(=O)N[C@@H](CC(N)=O)C(=O)N[C@@H](Cc1c[nH]c2ccccc12)C(=O)N[C@@H](CC(C)C)C(=O)N[C@H](C(=O)N[C@@H](CCCNC(=N)N)C(=O)N[C@@H](CCC(N)=O)C(=O)N[C@@H](CCCNC(=N)N)C(=O)N[C@@H](Cc1ccc(O)cc1)C(N)=O)[C@@H](C)O)C(C)C
B3: Compound 53 (peptide)
peptide: Isovaleryl-APEK([AEEA-AEEA-γGlu-C18 diacid])PEADASPEEIQRYYVSLRHYYNWLTRQRY-NH2
B4: Compound 84 (peptide)
peptide: Isovaleryl-APEK([AEEA-AEEA-γGlu-C18 diacid])PEEDASPEEIQRYYVSLRHYYNWLTRQRY-NH2
B5: Compound 203 (peptide)
peptide: Isovaleryl-APAK([AEEA-AEEA-γGlu-C18 diacid])PEEDASPEELQRYYVSLRHYYNWLTRQRY-NH2
B6: Compound 188 (peptide)
peptide: Isovaleryl-APEK([AEEA-AEEA-γGlu-C18 diacid])PEEDAEPEELQRYYVSLRHYYNWLTRQRY-NH2
SMILES: CC(C)CC(=O)N[C@@H](C)C(=O)N1CCC[C@H]1C(=O)N[C@@H](CCC(=O)O)C(=O)N[C@@H](CCCCNC(=O)COCCOCCNC(=O)COCCOCCNC(=O)CC[C@H](NC(=O)CCCCCCCCCCCCCCCCC(=O)O)C(=O)O)C(=O)N1CCC[C@H]1C(=O)N[C@@H](CCC(=O)O)C(=O)N[C@@H](CCC(=O)O)C(=O)N[C@@H](CC(=O)O)C(=O)N[C@@H](C)C(=O)N[C@@H](CCC(=O)O)C(=O)N1CCC[C@H]1C(=O)N[C@@H](CCC(=O)O)C(=O)N[C@@H](CCC(=O)O)C(=O)N[C@@H](CC(C)C)C(=O)N[C@@H](CCC(N)=O)C(=O)N[C@@H](CCCNC(=N)N)C(=O)N[C@@H](Cc1ccc(O)cc1)C(=O)N[C@@H](Cc1ccc(O)cc1)C(=O)N[C@H](C(=O)N[C@@H](CO)C(=O)N[C@@H](CC(C)C)C(=O)N[C@@H](CCCNC(=N)N)C(=O)N[C@@H](Cc1c[nH]cn1)C(=O)N[C@@H](Cc1ccc(O)cc1)C(=O)N[C@@H](Cc1ccc(O)cc1)C(=O)N[C@@H](CC(N)=O)C(=O)N[C@@H](Cc1c[nH]c2ccccc12)C(=O)N[C@@H](CC(C)C)C(=O)N[C@H](C(=O)N[C@@H](CCCNC(=N)N)C(=O)N[C@@H](CCC(N)=O)C(=O)N[C@@H](CCCNC(=N)N)C(=O)N[C@@H](Cc1ccc(O)cc1)C(N)=O)[C@@H](C)O)C(C)C
B7: Compound 231 (peptide)
peptide: Isovaleryl-APEK([AEEA-AEEA-γGlu-C18 diacid])PEEDATPEELQKYYVSLRHYYNWLTRQRY-NH2

*1 amine or outer side, *2 acyl side, *3 side chain or, on linkers, in order; H or OH if unused. Side-chain parts run from the residue outwards. The star is where a group is joined. C18 diacid = O=C(O)CCCCCCCCCCCCCCCCC(=O)*; γGlu = O=C(O)[C@H](CCC(=O)[*:2])N[*:1]; Isovaleryl = CC(C)CC(=O)*; AEEA = NCCOCCOCC(=O)O Bounds are passed on as bounds.

Chain of human NPY4 receptor (P50391 whole entry): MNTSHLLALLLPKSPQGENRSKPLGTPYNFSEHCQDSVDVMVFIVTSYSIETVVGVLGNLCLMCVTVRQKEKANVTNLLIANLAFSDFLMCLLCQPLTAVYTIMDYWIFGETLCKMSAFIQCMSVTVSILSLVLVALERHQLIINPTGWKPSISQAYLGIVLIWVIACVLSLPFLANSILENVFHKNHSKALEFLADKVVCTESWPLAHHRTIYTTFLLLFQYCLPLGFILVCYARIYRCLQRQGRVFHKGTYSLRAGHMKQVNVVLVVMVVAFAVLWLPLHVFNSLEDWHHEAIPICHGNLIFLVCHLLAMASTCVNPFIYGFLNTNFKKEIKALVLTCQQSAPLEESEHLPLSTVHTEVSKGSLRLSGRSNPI

One assay deals with T1, human neuropeptide Y2 receptor. Description: ratio of apparent Ki, pH 6.1-6.2 over pH 7.1-7.2. Here is the method: (§1) The filtration RLB assay was carried out in 96-well plates in a final volume of 100 μl per well. Freeze-dried test peptides were dissolved in 100% dimethyl sulfoxide (DMSO) to stock solutions of 1 mM and serial dilutions were performed in assay buffer (50 mM HEPES, 5 mM MgCl₂, 1 mM CaCl₂, pH 7.4) containing 0.2% ovalbumin. […] Next, 80 μL membranes (HTS066M, ChemiSCREEN™ Human Neuropeptide Y2 Receptor Membrane Preparation, CHEMICON) were added to each well to give a final protein concentration of 0.5 μg/well. The plates were sealed and incubated at room temperature for 2 hours in a plate shaker set at 400 rpm. The incubation was stopped by vacuum filtration onto 0.5% poly-ethylene amine (PEI) presoaked GF/C filters using a 96-well FilterMate™ harvester (Perkin Elmer) followed by four washes with 300 μl/well ice-cold wash buffer (50 mM HEPES, 500 mM NaCl, pH7.4). Filter plates were then dried for 60 min at room temperature and the bottom of the plates was sealed with backing tape UniFilter-96. Finally, 50 μl/well scintillation counter cocktail (Microscint20, Packard) was added and the radioactivity was counted in the Packard TopCount NXT scintillation counter. IC₅₀ values (the half maximal inhibitory concentration of the agonist) were calculated by nonlinear regression analysis of sigmoidal dose-response curves.
(§2) Peptides (as TFA salts) were weighed out in a filter unit (Mini-UniPrep Syringeless Filter 0.45 μm, Whatman), and 0.1 M sodium diphosphate buffer at pH 6.4 or 7.4, respectively, or 0.2 M TRIS buffer at pH 8.3 was added to achieve 10 mg/ml final concentration. The peptide was (partially) dissolved by shaking the filter unit horizontally at approx. 400 rpm for 2 hours at room temperature. The sample was filtered to remove any insoluble particles.
With B1, the “RLB ratio (RLB6/RLB7)” value turned out to be 1.
On the same count and under the same terms, the value for B2 was 0.9; that for B3 was 1.1.

The target is the same in the next assay. Put plainly: radioligand competition (125I-PYY(1-36)), hY2R membranes; DMSO stock. Here is the method: as §1
As for B1, the Ki came out at 4.9 nM.
Same read-out and setting: the value for B4 was 3.5 nM; that for B2 was 4.6 nM; that for B5 was 3 nM.
For the molecule B3, the Ki was 2 nM.

For another assay the target is unchanged. Put plainly: RLB 8: apparent Ki of filtrate after incubation at pH 8.1-8.2. Here is the method:
as §1, §2
On to B1, for which the Ki was found to be 6.3 nM.
Still for that read-out and setting: the value for B2 was 2.3 nM; that for B3 was 2.5 nM.

The target is the same in another assay. Description: ratio of apparent Ki, pH 8.1-8.2 over pH 7.1-7.2. Here is the method:
as §1, §2
For the molecule B1, the “RLB ratio (RLB8/RLB7)” value is 1.
Still for that read-out and setting: for B2 the value was 0.5; for B3, 0.8.

The next assay deals with T2, human NPY5 receptor. Description: cell-based or functional assay.
Regarding B1, the “EC50 (HTRF cAMP Gi assay)” value was over 5 µM.
Same read-out and setting: for B6 the value was over 5 µM.
In the case of B3, the “EC50 (HTRF cAMP Gi assay)” value is over 5 µM.
Still for that read-out and setting: for B7 the value was over 5 µM.

Another assay concerns the target human NPY4 receptor (human, UniProt P50391 1-375). Description: cell-based or functional assay.
Turning to B1, the “EC50 (HTRF cAMP Gi assay)” value is over 5 µM.
The same measure, in the same setting: for B6 the value was over 5 µM.
The same measure, in the same setting: for B3 the value was over 5 µM.
Take B7: the “EC50 (HTRF cAMP Gi assay)” value is over 5 µM.

A further assay deals with T1, human neuropeptide Y2 receptor. Description: cell-based or functional assay.
As for B1, the “EC50 (HTRF cAMP Gi assay)” value came to 0.15 nM.
Same read-out and setting: the value for B6 was 0.106 nM; that for B3 was 0.119 nM; that for B7 was 0.107 nM.

A further assay deals with T3, human NPY1 receptor. Put plainly: cell-based or functional assay.
For the molecule B1, the “EC50 (HTRF cAMP Gi assay)” value was over 5 µM.
Same read-out and setting: the value for B6 was over 5 µM; that for B3 was over 5 µM; that for B7 was over 5 µM.

The target in another assay is T1, human neuropeptide Y2 receptor. Description: RLB 7: apparent Ki of filtrate after incubation at pH 7.1-7.2. Here is the method: as §1, §2
With B1, the Ki is 6.3 nM.
The same measure, in the same setting: the value for B2 was 4.4 nM.
B5: the Ki worked out at 11.1 nM.
On the same count and under the same terms, for B3 the value was 3.1 nM.

The target is the same in another assay. Description: radioligand competition (125I-PYY(1-36)), hNPY2R membranes. An outline of the steps: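 Commercial human Y2 receptor membranes (0.5 μg protein/well) were incubated with peptide for 2 h at room temperature in 50 mM HEPES, 5 mM MgCl₂, 1 mM CaCl₂, pH 7.4, with 0.2% ovalbumin. Bound radioligand was separated on PEI-soaked GF/C filters and counted by scintillation, and IC₅₀ came from nonlinear sigmoidal regression.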
On the technique in general: Displacement assays read how much labelled ligand stays bound in the presence of the test substance.
The molecule B1 showed a Ki of 0.63 nM.
For the molecule B6, the Ki came out at 3.09 nM.
The same measure, in the same setting: for B4 the value was 1.19 nM; for B2, 0.29 nM; for B5, 0.75 nM.
Molecule B3 showed a Ki of 0.24 nM.
Still for that read-out and setting: the value for B7 was 1.96 nM.

For the next assay the target is unchanged. Description: RLB 6: apparent Ki of filtrate after incubation at pH 6.1-6.2.
For the molecule B1, the Ki was determined as 6.3 nM.
Regarding B4, the Ki worked out at 6.6 nM.
Turning to B2, the Ki stood at 3.8 nM.
Take B5: the Ki turned out to be 4.6 nM.
Regarding B3, the Ki is 3.4 nM.

The values are drawn from patent publication US20210139548A1 (published 2021).
